Measured values taken from the supplement of paper PMC9112550, “Optimization of the antimicrobial peptide Bac7 by deep mutational scanning” (BMC Biology, 2022).

tested on: Escherichia coli TOP10; experiment: shrunken log2 fold change of peptide-encoding DNA abundance (4.5 h post-induction vs induction); higher = less antimicrobial activity (less host growth inhibition); settings: time post-induction: 4.5 h; library: site-saturation at positions 5, 18, 19, 20
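Also: peptides expressed intracellularly from a pBAD plasmid library in pooled LB shake-flask culture, induced with 0.3% L-arabinose, DNA abundance read by NGS, three biological replicates, DESeq2 with apeglm shrinkage.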

Sequence | shrunken log2 fold change
RRIRIRPPRLPRPRPRPPWSPRP | 0.219
RRIRCRPPRLPRPRPRPKTLPRP | -0.246
RRIRQRPPRLPRPRPRPGFHPRP | 0.00101
RRIRWRPPRLPRPRPRPILYPRP | -0.515
RRIRMRPPRLPRPRPRPGNSPRP | -0.616
RRIRCRPPRLPRPRPRPILTPRP | -0.302
RRIRMRPPRLPRPRPRPKKIPRP | 0.599
RRIRDRPPRLPRPRPRPGQFPRP | -0.166
RRIRCRPPRLPRPRPRPTNPPRP | -0.429
RRIRPRPPRLPRPRPRPKKNPRP | 0.0249
RRIRQRPPRLPRPRPRPVWQPRP | 0.232
RRIRWRPPRLPRPRPRPNPAPRP | 0.098
RRIRFRPPRLPRPRPRPEHPPRP | -0.0569
RRIRARPPRLPRPRPRPIWSPRP | 1.14
RRIRHRPPRLPRPRPRPNMPPRP | 0.0144
RRIRRRPPRLPRPRPRPTRKPRP | 0.498
RRIRGRPPRLPRPRPRPEAHPRP | 0.079
RRIRQRPPRLPRPRPRPMAEPRP | 0.0238
RRIRQRPPRLPRPRPRPEYNPRP | -0.424
RRIRRRPPRLPRPRPRPPHTPRP | 0.879
RRIRSRPPRLPRPRPRPFWNPRP | -0.139
RRIRHRPPRLPRPRPRPMPTPRP | 0.0549
RRIRRRPPRLPRPRPRPWPKPRP | 0.13
RRIRVRPPRLPRPRPRPWVVPRP | -0.0754
RRIRYRPPRLPRPRPRPTAHPRP | -0.466

Sequence | shrunken log2 fold change
RRIRPRPPRLPRPRPRPIGLPRP | 0.155
RRIRFRPPRLPRPRPRPFPCPRP | -0.151
RRIRWRPPRLPRPRPRPRDRPRP | 0.909
RRIRVRPPRLPRPRPRPIQVPRP | 0.0304
RRIRQRPPRLPRPRPRPVNNPRP | -0.0612
RRIRLRPPRLPRPRPRPDHVPRP | -0.00963
RRIRPRPPRLPRPRPRPSWWPRP | 0.394
RRIRHRPPRLPRPRPRPFWKPRP | -0.0724
RRIRCRPPRLPRPRPRPHRPPRP | -0.0186
RRIRHRPPRLPRPRPRPASPPRP | 0.158
RRIRWRPPRLPRPRPRPAKQPRP | 0.0759
RRIRFRPPRLPRPRPRPMYFPRP | -0.331
RRIRERPPRLPRPRPRPIVTPRP | -0.158
RRIRFRPPRLPRPRPRPRMSPRP | 0.000208
RRIRIRPPRLPRPRPRPDMAPRP | -0.0603
RRIRRRPPRLPRPRPRPDGPPRP | 0.215
RRIRTRPPRLPRPRPRPHWQPRP | -0.0496
RRIRYRPPRLPRPRPRPNREPRP | 0.00551
RRIRSRPPRLPRPRPRPIFPPRP | 1.04
RRIRSRPPRLPRPRPRPHYNPRP | -1.04
RRIRKRPPRLPRPRPRPSELPRP | 0.141
RRIRKRPPRLPRPRPRPDDCPRP | 0.149
RRIRPRPPRLPRPRPRPNYVPRP | -0.352
RRIRWRPPRLPRPRPRPFCVPRP | -0.0188
RRIRLRPPRLPRPRPRPFYMPRP | -0.0545

Sequence | shrunken log2 fold change
RRIRKRPPRLPRPRPRPRDLPRP | 0.255
RRIRARPPRLPRPRPRPWAAPRP | 0.239
RRIRERPPRLPRPRPRPIQYPRP | -0.163
RRIRRRPPRLPRPRPRPMSSPRP | -0.00615
RRIRTRPPRLPRPRPRPYGVPRP | 0.0122
RRIRDRPPRLPRPRPRPYKQPRP | -0.0404
RRIRNRPPRLPRPRPRPYIKPRP | -1.03
RRIRHRPPRLPRPRPRPETGPRP | -0.0213
RRIRGRPPRLPRPRPRPARMPRP | 0.613
RRIRMRPPRLPRPRPRPHHHPRP | -0.412
RRIRWRPPRLPRPRPRPMVKPRP | 0.17
RRIRWRPPRLPRPRPRPEARPRP | 0.106
RRIRERPPRLPRPRPRPSEAPRP | 0.134
RRIRRRPPRLPRPRPRPIANPRP | -0.195
RRIRGRPPRLPRPRPRPFNYPRP | -0.419
RRIRDRPPRLPRPRPRPHACPRP | 0.00242
RRIRLRPPRLPRPRPRPAPDPRP | 0.215
RRIRARPPRLPRPRPRPDVYPRP | 0.152
RRIRIRPPRLPRPRPRPYGYPRP | -0.0764
RRIRGRPPRLPRPRPRPYCEPRP | 0.22
RRIRFRPPRLPRPRPRPVGSPRP | -0.0263
RRIRFRPPRLPRPRPRPERNPRP | -0.184
RRIRRRPPRLPRPRPRPPCFPRP | 0.741
RRIRQRPPRLPRPRPRPDNTPRP | -0.178
RRIRYRPPRLPRPRPRPGVTPRP | -0.048
